Publication PMC6613885

Target: GST-LC3B, Q9GZQ8
Assay: GST-pulldown, in vitro-translated 35S-labelled protein, autoradiography quantification
Details: chain shown with the change; Means ± SD of 3 independent experiments; parent: est. 1.0; read off a plot

response: 0.6 % binding
B1: Myc-tagged ATG14, full-length, in vitro translated, Q6ZNE5 F64A; F67A; W435A; L438A (protein)
chain: MASPSGKGARALEAPGCGPRPLARDLVDSVDDAEGLYVAVERCPLCNTTRRRLTCAKCVQSGDAVYADGRDRERFIDKKERLSRLKSKQEEFQKEVLKAMEGKWITDQLRWKIMSCKMRIEQLKQTICKGNEEMEKNSEGLLKTKEKNQKLYSRAQRHQEKKEKIQRHNRKLGDLVEKKTIDLRSHYERLANLRRSHILELTSVIFPIEEVKTGVRDPADVSSESDSAMTSSTVSKLAEARRTTYLSGRWVCDDHNGDTSISITGPWISLPNNGDYSAYYSWVEEKKTTQGPDMEQSNPAYTISAALCYATQLVNILSHILDVNLPKKLCNSEFCGENLSKQKFTRAVKKLNANILYLCFSQHVNLDQLQPLHTLRNLMYLVSPSSEHLGRSGPFEVRADLEESMEFVDPGVAGESDESGDERVSDEETDLGTDAENAPSPRFCDIPSQSVEVSQSQSTQASPPIASSSAGGMISSAAASVTSWFKAYTGHR
